# Molecular target: type B human PDGF receptor (B-hPDGF-R) on transfected CHO cells (CHO-HR5) (human) (UniProt P09619)
# Test: whole-cell 125I-PDGF binding, 37 C for 45 min, Ficoll gradient; non-specific binding taken from CHO cells
# type B human PDGF receptor (B-hPDGF-R) on transfected CHO cells (CHO-HR5) (human), sequence (P09619 33-1106 E241D): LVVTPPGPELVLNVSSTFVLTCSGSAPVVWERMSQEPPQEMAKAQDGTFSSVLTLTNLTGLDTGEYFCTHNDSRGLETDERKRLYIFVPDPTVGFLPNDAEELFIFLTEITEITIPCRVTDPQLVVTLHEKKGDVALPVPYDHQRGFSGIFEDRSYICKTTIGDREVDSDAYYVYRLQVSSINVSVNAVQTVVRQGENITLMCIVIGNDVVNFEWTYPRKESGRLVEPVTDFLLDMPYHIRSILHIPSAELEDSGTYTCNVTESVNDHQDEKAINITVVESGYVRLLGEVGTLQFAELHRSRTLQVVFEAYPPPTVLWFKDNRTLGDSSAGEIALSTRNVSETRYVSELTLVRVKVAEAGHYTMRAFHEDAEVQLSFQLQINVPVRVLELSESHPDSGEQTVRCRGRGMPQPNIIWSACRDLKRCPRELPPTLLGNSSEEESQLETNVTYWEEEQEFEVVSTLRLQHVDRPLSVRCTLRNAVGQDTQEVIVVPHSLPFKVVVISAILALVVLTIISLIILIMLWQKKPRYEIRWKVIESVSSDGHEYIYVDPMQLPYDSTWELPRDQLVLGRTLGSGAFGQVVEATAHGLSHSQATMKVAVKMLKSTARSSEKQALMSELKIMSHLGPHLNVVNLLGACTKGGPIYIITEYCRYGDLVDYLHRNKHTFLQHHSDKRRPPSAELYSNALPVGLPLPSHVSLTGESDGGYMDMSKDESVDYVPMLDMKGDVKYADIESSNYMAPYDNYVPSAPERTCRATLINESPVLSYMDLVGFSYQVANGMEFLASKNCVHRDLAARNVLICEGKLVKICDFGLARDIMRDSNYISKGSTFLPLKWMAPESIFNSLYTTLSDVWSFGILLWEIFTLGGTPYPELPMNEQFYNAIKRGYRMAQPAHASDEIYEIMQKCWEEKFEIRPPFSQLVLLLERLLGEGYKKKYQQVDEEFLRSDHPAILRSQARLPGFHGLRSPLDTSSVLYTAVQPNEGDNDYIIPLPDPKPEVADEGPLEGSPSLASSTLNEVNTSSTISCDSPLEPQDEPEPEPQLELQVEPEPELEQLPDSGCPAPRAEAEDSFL
substance,measurement,value
^125I-labeled PDGF (ligand),non-specific binding as percent of the bound radioactivity,25 percent

# — patent US7105305
